The text below walks through data of patent US20240287172A1 (SCIRHOM, published 2024).

One experiment concerns the target T1, hiR2-FL-S537E-T7 (human, UniProt Q6PJF5 1-856).
T1 sequence: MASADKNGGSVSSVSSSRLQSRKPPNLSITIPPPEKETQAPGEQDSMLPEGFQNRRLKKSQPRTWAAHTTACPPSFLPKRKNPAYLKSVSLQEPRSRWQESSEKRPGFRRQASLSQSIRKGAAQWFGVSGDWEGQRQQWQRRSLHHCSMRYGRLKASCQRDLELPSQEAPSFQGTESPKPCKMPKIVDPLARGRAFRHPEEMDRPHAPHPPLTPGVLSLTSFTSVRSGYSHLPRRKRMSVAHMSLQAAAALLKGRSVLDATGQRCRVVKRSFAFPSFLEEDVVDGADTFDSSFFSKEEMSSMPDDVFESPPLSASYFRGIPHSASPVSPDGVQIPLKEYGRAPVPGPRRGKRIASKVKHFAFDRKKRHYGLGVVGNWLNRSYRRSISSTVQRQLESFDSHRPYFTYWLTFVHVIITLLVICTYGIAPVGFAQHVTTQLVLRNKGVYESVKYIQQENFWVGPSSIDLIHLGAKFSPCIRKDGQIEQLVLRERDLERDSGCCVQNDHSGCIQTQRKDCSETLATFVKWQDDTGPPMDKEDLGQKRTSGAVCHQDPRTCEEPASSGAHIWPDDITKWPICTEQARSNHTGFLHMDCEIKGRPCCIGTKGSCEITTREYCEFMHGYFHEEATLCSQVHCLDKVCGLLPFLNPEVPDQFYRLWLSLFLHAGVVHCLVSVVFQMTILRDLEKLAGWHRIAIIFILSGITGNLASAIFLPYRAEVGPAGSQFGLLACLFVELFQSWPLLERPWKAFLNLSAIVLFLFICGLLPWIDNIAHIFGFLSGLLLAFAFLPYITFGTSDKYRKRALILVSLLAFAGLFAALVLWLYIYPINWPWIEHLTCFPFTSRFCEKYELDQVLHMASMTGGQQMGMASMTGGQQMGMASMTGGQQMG
As to the kind of experiment: FACS on MEF-DKO cells.

For the next experiment, the target named is T2, hiR2-FL-I483V-T7 (human, UniProt Q6PJF5 1-856).
T2 sequence: T1 sequence with I483V, E537S
As to the kind of experiment: FACS, MEF-DKO cells, 3 µg/ml. The text has this:
In brief, immortalized MEF-DKO-hiR2-FL-A431S-T7, MEF-DKO-hiR2-FL-V434E-T7, MEF-DKO-hiR2-FL-T436V-T7, MEF-DKO-hiR2-FL-Q437D-T7, MEF-DKO-hiR2-FL-L438S-T7, MEF-DKO-hiR2-FL-S448N-T7, MEF-DKO-hiR2-FL-I452V-T7, MEF-DKO-hiR2-FL-I464E-T7, MEF-DKO-hiR2-FL-D465A-T7, MEF-DKO-hiR2-FL-I477M-T7, MEF-DKO-hiR2-FL-K479Q-T7, MEF-DKO-hiR2-FL-G481P-T7, MEF-DKO-hiR2-FL-I483V-T7, MEF-DKO-hiR2-FL-E484H-T7, MEF-DKO-hiR2-FL-Q485S-T7, MEF-DKO-hiR2-FL-L486F-T7, MEF-DKO-hiR2-FL-V487I-T7, MEF-DKO-hiR2-FL-R489S-T7, MEF-DKO-hiR2-FL-E490A-T7, MEF-DKO-hiR2-FL-D492E-T7, MEF-DKO-hiR2-FL-L493R-T7, MEF-DKO-hiR2-FL-R495K-T7 and MEF-DKO-hiR2-FL-D496H-T7 cells were harvested with 10 mM EDTA in PBS, washed and resuspended in FACS buffer (PBS, 3% FBS, 0.05% sodium azide), and seeded in Nunc U-bottom 96-well plates (Thermo Fisher Scientific, USA) at approximately 1×10⁵ cells per well. To pellet cells and remove supernatants, the plates were centrifuged at 1,500 rpm and 4° C. for 3 minutes. For primary staining, cells were resuspended in 100 μl per well of either FACS buffer alone (controls) or the purified antibodies 3, 5, 16, 22, 34, 42, 43, 44, 48, and 50 of the invention at 3 μg/ml in FACS buffer and incubated on ice for 1 hour. Afterwards, plates were centrifuged at 1,500 rpm and 4° C. for 3 minutes and washed twice with 200 μl per well of FACS buffer. For secondary staining, cells were spun down and resuspended in 100 μl per well of PE-conjugated goat anti-mouse IgG F(ab′)2 detection fragment (Dianova, Germany) diluted 1:100 in FACS buffer. Protected from light, the cell suspensions were incubated on ice for 1 hour. Plates were then centrifuged at 1,500 rpm and 4° C. for 3 minutes and washed three times with 200 μl per well of FACS buffer. Finally, cells were resuspended in 150 μl per well of FACS buffer and analyzed using a BD Accuri™ C6 Plus flow cytometer (Becton Dickinson, Germany).
(In general: In flow cytometry, cells or beads pass a laser one at a time.)

Residue numbers refer to the chain shown, from its start.

B1: antibody 34 (antibody, V domains shown)
VH: QVTLKESGPGILQPSQTLSLTCSFSGFSLSTFSLGVGWIRQSSGKGLEWLAHIWWDDEKYYNPALKSRLTISKDTSKNQVFLKIANVDAADTATYYCARAYYSKSYYALDYWGQGTSVTVSS
VL: DIQMTQSPSSLSASLGERVSLTCRASQEISGYLSWLQQKPDGTIKRLIYAASTLDSGVPKRFSGSRSGSDYSLAISSLESEDFADYYCLQYANFPFTFGSGTKLEIK
notes: mouse IgG, kappa light chain; also called clone #34; purified antibody 34
Consider B1, for which the binding result with hiR2-FL-S537E-T7 was “no binding (tested: 3 µg/ml)”.

B2: antibody 48 (antibody, V domains shown)
VH: QVQLQQSGTELVRPGTSVKVSCKASGYAFTNYLIEWVKQRPGQGLEWIGVINPGSGFTKYNEKFKGKATLTADKSSSTVYMHLSSLTSEDSAVYFCARGLYRAMDYWGQGTSVTVSS
VL: DIQMTQSPASQSASLGESVTITCLASQTIATWLAWYQQKPGKSPQLLIYGATTLADGVPSRFSGGGSGTKFSFKISSLQAEDFVSYYCQQLYSTPYTFGGGTKLEIK
notes: mouse IgG, kappa light chain; also called clone #48; purified antibody 48
Regarding B2, the “loss of binding vs wild type” value with hiR2-FL-I483V-T7 is at least 30%.

B3: antibody 50 (antibody, V domains shown)
VH: B2 VH with T9A, T16A, T30S, V79A, H82Q
VL: B2 VL with A30G, G50A, T52A, T53S, S85N, L91I
notes: mouse IgG, kappa light chain; also called clone #50; purified antibody 50
On to B3, for which the “loss of binding vs wild type” value with hiR2-FL-I483V-T7 is at least 30%.

B4: antibody 5 (antibody, V domains shown)
VH: QVTLKESGPGILQPSQTLSLTCSFSGFSLSTFGMGVGWIRQPSGKGLEWLAHIWWDDEKYYNSALKSRLTISKATSKNQAFLKIANVDTADTATYYCARISNYGSNYWYFNVWGTGTTVTVSS
VL: QVVLTQSPALMSASPGEKVTMTCSAGSSVSCMYWYQQKPGSSPRVLIYDTSNLASGVPARFTGSGSGTSYSLTISRMEAEDAASYYCQQWNSYPLTFGAGTKLELK
notes: mouse IgG, kappa light chain; also called clone #5; purified antibody 5
On to B4, for which the binding result with hiR2-FL-S537E-T7 is “no binding (tested: 3 µg/ml)”.
